Measurements reported in article PMC4488245.

Key:
[1] = target: TcP37/NRBD (T. cruzi (endogenous in CL Brener epimastigotes)); experiment: co-IP; anti-P34/P37 antibody cross-linked to Protein A Dynabeads, 1 mg epimastigote whole cell extract, 4°C overnight, washed in PBS-T; pellet and supernatant blotted with anti-TcL5 peptide antibody; extracts with or without RNase A (20 U/ml, 1 hour, 37°C)
[2] = system: TcL5 (ribosomal protein L5) (Trypanosoma cruzi CL Brener); experiment: filter binding; settings: 10 mM Tris pH 7.4, 1 mM EDTA, 100 mM NaCl, 0.1% NP40, 100 ug/mL BSA; room temperature, 30 min; 0.5 fmol RNA in 50 ul, 0-500 nM protein
[3] = system: TcP37/NRBD (Trypanosoma cruzi CL Brener); experiment: filter binding; settings: 10 mM Tris pH 7.4, 1 mM EDTA, 100 mM NaCl, 0.1% NP40, 100 ug/mL BSA; room temperature, 30 min; 0.5 fmol RNA in 50 ul, 0-500 nM protein
rTcL5 (T. cruzi) = experiment: co-IP; 500 ng rTcP37/NRBD and 500 ng rTcL5, with or without 500 ng in vitro transcribed Tc 5S rRNA, applied to TcL5 antibody cross-linked Dynabeads; eluate and supernatant blotted with P34/P37 antibodies

For TcL5 (natural protein), the decrease of the association after RNase A treatment of the extract [1] was 74%.

Tc 5S rRNA was tested, and the Kd [2] was 11 nM and the Kd [3] was 63 nM.

Substance rTcP37/NRBD (natural protein) has an increase of the association in the presence of 5S rRNA (rTcL5 (T. cruzi)) of 62%.
